Reference: the supplement of paper PMC10567573

B1: TRIM9 (parent)
chain: CVQCKMPVCYQCLEEGKHSSHEVK
B2: MYL5 (parent)
chain: FQFASIDVAGNLDYKALSYVITHG

Variants of: B1
Test: protein stability index of a GFP-peptide fusion (GPS, HEK-293T) (PSI 1-6); higher = more stable
Details: c terminus: a fixed tail appended
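Further: lentivirally expressed fusions sorted by FACS into six bins by GFP to DsRed ratio, PSI derived from sequencing read proportions per bin multiplied by bin number.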

Variant	protein stability index
CVQCKMPVCYQCLEEGKHSSHEYK [V23Y]	3.46
CVQCKMPVCYQCLEEGKHSSHEVI [K24I]	2.95
CVQCKMPVCYQCLEEGKHSSHEVR [K24R]	3.46
CVQCKMPVCYQCLEEGKHSSHEVL [K24L]	3.8
CVQCKMPVCYQCLEEGKHSSHEVV [K24V]	3.8
CVQCKMPVCYQCLEEGKHSSHEVT [K24T]	3.7
CVQCKMPVCYQCLEEGKHSSHEVG [K24G]	3.19
CVQCKMPVCYQCLEEGKHSSHEVM [K24M]	3.68
CVQCKMPVCYQCLEEGKHSSHEVW [K24W]	2.88
CVQCKMPVCYQCLEEGKHSSHEVD [K24D]	4.73
CVQCKMPVCYQCLEEGKHSSHEVP [K24P]	3.62
CVQCKMPVCYQCLEEGKHSSHEVC [K24C]	4.97
CVQCKMPVCYQCLEEGKHSSHEVY [K24Y]	3.41
CVQCKMPVCYQCLEEGKHSSHEVS [K24S]	3.71
CVQCKMPVCYQCLEEGKHSSHEVH [K24H]	3.92
CVQCKMPVCYQCLEEGKHSSHEVQ [K24Q]	3.96
CVQCKMPVCYQCLEEGKHSSHEVN [K24N]	3.89
CVQCKMPVCYQCLEEGKHSSHEVF [K24F]	2.85
CVQCKMPVCYQCLEEGKHSSHEVE [K24E]	4.59
CVQCKMPVCYQCLEEGKHSSHEVA [K24A]	4.28

Variants of: B2
Test: as above
Details: c terminus: a fixed tail appended

Variant	protein stability index
FQFASEDVAGNLDYKALSYVITHG [I6E]	1.49
FQFASDDVAGNLDYKALSYVITHG [I6D]	1.4
FQFASQDVAGNLDYKALSYVITHG [I6Q]	2.92
FQFASHDVAGNLDYKALSYVITHG [I6H]	4
FQFASTDVAGNLDYKALSYVITHG [I6T]	1.66
FQFASPDVAGNLDYKALSYVITHG [I6P]	2.43
FQFASGDVAGNLDYKALSYVITHG [I6G]	1.26
FQFASFDVAGNLDYKALSYVITHG [I6F]	4.13
FQFASYDVAGNLDYKALSYVITHG [I6Y]	2.46
FQFASNDVAGNLDYKALSYVITHG [I6N]	3.39
FQFASSDVAGNLDYKALSYVITHG [I6S]	1.18
FQFASADVAGNLDYKALSYVITHG [I6A]	2.72
FQFASMDVAGNLDYKALSYVITHG [I6M]	3.92
FGFASIDVAGNLDYKALSYVITHG [Q2G]	3.54
FFFASIDVAGNLDYKALSYVITHG [Q2F]	2.36
FPFASIDVAGNLDYKALSYVITHG [Q2P]	3.25
FVFASIDVAGNLDYKALSYVITHG [Q2V]	3.19
FMFASIDVAGNLDYKALSYVITHG [Q2M]	2.75
FEFASIDVAGNLDYKALSYVITHG [Q2E]	4.45
FCFASIDVAGNLDYKALSYVITHG [Q2C]	3.59
FRFASIDVAGNLDYKALSYVITHG [Q2R]	4.64
FHFASIDVAGNLDYKALSYVITHG [Q2H]	2.06
FTFASIDVAGNLDYKALSYVITHG [Q2T]	2.75
FAFASIDVAGNLDYKALSYVITHG [Q2A]	1.56
FDFASIDVAGNLDYKALSYVITHG [Q2D]	4.24

Variant	protein stability index
FLFASIDVAGNLDYKALSYVITHG [Q2L]	2.78
FNFASIDVAGNLDYKALSYVITHG [Q2N]	3.37
FKFASIDVAGNLDYKALSYVITHG [Q2K]	2.89
FQFANIDVAGNLDYKALSYVITHG [S5N]	3.74
FQFAVIDVAGNLDYKALSYVITHG [S5V]	2.69
FQFADIDVAGNLDYKALSYVITHG [S5D]	2.43
FQFAYIDVAGNLDYKALSYVITHG [S5Y]	3.17
FQFAMIDVAGNLDYKALSYVITHG [S5M]	3.67
FQFACIDVAGNLDYKALSYVITHG [S5C]	1.36
FQFAKIDVAGNLDYKALSYVITHG [S5K]	2.4
FQFAWIDVAGNLDYKALSYVITHG [S5W]	2.62
FQFAAIDVAGNLDYKALSYVITHG [S5A]	3.09
FQFAFIDVAGNLDYKALSYVITHG [S5F]	3.77
FQFAIIDVAGNLDYKALSYVITHG [S5I]	4.16
FQFASIDVADNLDYKALSYVITHG [G10D]	2.05
FQFASIDVAQNLDYKALSYVITHG [G10Q]	3.41
FQFASIDVANNLDYKALSYVITHG [G10N]	2.84
FQFASIDVAENLDYKALSYVITHG [G10E]	3.19
FQFASIDVAANLDYKALSYVITHG [G10A]	2.49
FQFASIDVAFNLDYKALSYVITHG [G10F]	2.96
FQFASIDVAINLDYKALSYVITHG [G10I]	2.02
FQFASIDVAVNLDYKALSYVITHG [G10V]	2.6
FQFASIDVALNLDYKALSYVITHG [G10L]	1.72
FQFASIDVAWNLDYKALSYVITHG [G10W]	1.35
FQFASIDVAPNLDYKALSYVITHG [G10P]	2.92

Variant	protein stability index
FQFASIDVAHNLDYKALSYVITHG [G10H]	1.84
FQFASIDVAKNLDYKALSYVITHG [G10K]	2.08
FQFASIDVAGNEDYKALSYVITHG [L12E]	3.08
FQFASIDVAGNPDYKALSYVITHG [L12P]	2.88
FQFASIDVAGNQDYKALSYVITHG [L12Q]	3.21
FQFASIDVAGNDDYKALSYVITHG [L12D]	1.67
FQFASIDVAGNFDYKALSYVITHG [L12F]	4.33
FQFASIDVAGNVDYKALSYVITHG [L12V]	2.56
FQFASIDVAGNCDYKALSYVITHG [L12C]	1.24
FQFASIDVAGNTDYKALSYVITHG [L12T]	1.83
FQFASIDVAGNKDYKALSYVITHG [L12K]	1.98
FQFASIDVAGNYDYKALSYVITHG [L12Y]	2.45
FQFASIDVAGNSDYKALSYVITHG [L12S]	2.44
FQFASIDVKGNLDYKALSYVITHG [A9K]	2.71
FQFASIDVMGNLDYKALSYVITHG [A9M]	3.38
FQFASIDVNGNLDYKALSYVITHG [A9N]	3.37
FQFASIDVYGNLDYKALSYVITHG [A9Y]	4.67
FQFASIDVHGNLDYKALSYVITHG [A9H]	2.26
FQFASIDVFGNLDYKALSYVITHG [A9F]	2.33
FQFASIDVPGNLDYKALSYVITHG [A9P]	1.7
FQFASIDVLGNLDYKALSYVITHG [A9L]	2.77
FQFASIDVTGNLDYKALSYVITHG [A9T]	3.01
FQFASIDVQGNLDYKALSYVITHG [A9Q]	1.91
FQQASIDVAGNLDYKALSYVITHG [F3Q]	2.32
